These results are taken from patent US20180305451A1 (COMPUGEN, published 2018).

To fix the notation:
T1: mouse HIDE1 (mouse, UniProt Q75VT8 22-222)
T1 construct: Endogenous on EL4, YAC-1, J774A.1/J774A.2 cells; also called AB124611; mHIDE1
T1 sequence: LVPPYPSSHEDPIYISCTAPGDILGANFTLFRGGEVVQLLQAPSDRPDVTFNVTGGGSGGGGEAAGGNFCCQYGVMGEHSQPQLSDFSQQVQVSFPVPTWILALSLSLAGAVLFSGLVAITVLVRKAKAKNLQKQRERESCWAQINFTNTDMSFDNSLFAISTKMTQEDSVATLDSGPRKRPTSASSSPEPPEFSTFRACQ

T2: human HIDE1 (human, UniProt A8MVS5 20-230)
T2 construct: Endogenous on U937, HL-60, THP-1 cells, blood monocytes, AML blasts and dendritic cells; also called C19orf38; hHIDE1
T2 sequence: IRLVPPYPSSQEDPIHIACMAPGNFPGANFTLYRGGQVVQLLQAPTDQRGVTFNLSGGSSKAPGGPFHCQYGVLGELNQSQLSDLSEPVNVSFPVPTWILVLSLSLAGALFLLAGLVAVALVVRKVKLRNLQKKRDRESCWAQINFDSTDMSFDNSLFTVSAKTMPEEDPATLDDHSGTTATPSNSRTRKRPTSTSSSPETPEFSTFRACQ

B1: CPA.12.002 human IgG4 (antibody, V domains shown)
VH: EVQLVESGGGLVQPGRSLRLSCAASGFTFSSYAMHWVRQVPGKGLEWVAVISYDGSNKYYADSVKGRFTISRDNSKNTLYLQMNSLRAEDTAVYYCAKPMYSSGWYPLGYWGQGTLVTVSS
VL: DIVMTQTPLSLPVTPGQPASISCRSSQSPLDTDGNTYLDWYLQRPGQSPQLLIYTLSNRASGVPDRFSGSGSGTDFTLKISRVEAEDVGIYYCMQRIQYPLTFGPGTRLEIKR
notes: also called CPA.12.002-H4
B2: CPA.12.004 human IgG4 (antibody, V domains shown)
VH: EVQLVETGGGLIQPGRSLRLSCVASDFRFSNHAMHWVRQAPGKELEWVAVISSDGSNRQYAYSVKGRFTISRDNSKNTLYLEMNILGPEDTAVYFCVRSHLGPEWYYGMDVWGQGTTVTVSS
VL: DIQMTQSPSSLSTSVGDSVTITCRSSQSISTFLSWFQHKPGKAPNLLIYDASSLQSGVPSRFSGSGSGTDFTLTISSLQPEDFATYYCQQSDYLPFTFGPGTKVEIKR
notes: also called CPA.12.004-H4
B3: CPA.12.003 human IgG4 (antibody, V domains shown)
VH: QVQLQESGPGLVTPSETLSLTCTVSGGSISSVSYYWGWVRQPPGKGLEWIGSIYYSGTTAHNPSLKSRVTMAVDTSKNQFSLSLSSVTAADTAVYFCARGWRYYEDYYFDHWGQGTLVTVSS
VL: DIQMTQSPSTLSASVGDRVTITCRASQSINRWLAWYQQKPGKAPKILIYTASSLESGVPSRFSGSGSGTEFTLTISSLQPDDFATYYCQQYNSYPITFGQGTRLEIKR
notes: also called CPA.12.003-H4
B4: CPA.12.001 human IgG4 (antibody, V domains shown)
VH: QVQLVESGGGLVQPGRSLRLSCAASGFTFSSYGMHWVRQAPGKGLEWVAVISYDGSNKYYADSVKGRFTISRDNSKNTLYLQMNSLRAEDTAVYYCASEGVDFWSGLDYWGQGTLVTVSS
VL: QSALTQPRSASGSAGQSVTISCTGTSSDVGGHNYVSWYQQFPGKAPKLLIYEVSHRPSGVPDRFSGSKSGNTASLTVSGLQAEDEADYYCSSYADLNNLMFGGGTKLTVLG
notes: also called CPA.12.001-H4
B5: CPA.12.007 Fab (A08 S398-01.E08) (Fab, V domains shown)
VH: EVQLVESGGGVVQPGESLRLSCAASGFTFSSYGFHWVRQSPGEGLEWLAVISYDGTSKSYADSVKGRFTVSRDNSKETLYLQLSSLRREDTALYYCARDTWGYYYGMDVWGQGTTVTVSS
VL: DIQMTQSPSFLSGSVGDRVSISCRASQDIRSHLAWYQRKPGEAPKLLIYTASSLQGGVPLRFSGSGSGTEFTLTISSLQPEDSATYYCQHLHLYPLTFGGGTKLEIKR
notes: XOMA031 library Fab in periplasmic extract
B6: CPA.12.014 Fab (B12 S404-01.E06) (Fab, V domains shown)
VH: QVTLKESGPALVTPTQNLTLTCTVSGGSISSSSYYWGWIRQPPGKGLEWIGSIYYSGSTYYNPSLKSRVTISVDTSKNQFSLKLSSVTAADTAVYYCARRRNSSGWFYFDYWGQGTLVTVSS
VL: QSVLTQPPSVSGAPRQRVTISCSGSRSNIGDNAVNWYQHPPGKAPKLLIYYDDLLPSGVSDRFSGSKSGTSASLAISGLQSEDEADYYCATWDDSLNGHVFGTGTKLTVLG
notes: as for B5
B7: CPA.12.002 Fab (A02 S397-01.A08) (Fab, V domains shown)
VH: B1 VH
VL: B1 VL
notes: as for B5
B8: CPA.12.011 Fab (B03 S400-01.E01) (Fab, V domains shown)
VH: EVQLVESGGGLVQPGGTLRLSCVVSGFTFSSYAMSWVRQAPGKGLEWVSGISGSGGSTYISSGRTYRSTYYADSVKGRFTIARDNSENTLFLQLNSLRAEDTAIYYCAKVNSGEYAHTFDYWGQGTLVTVSS
VL: DIQMTQSPSSLSASVGDRVTITCRASQGISNYLVWYQQKPGKAPKSLIYAASSLQSGVPSRFSGSGSGTDFTLTISSLQPEDFATYYCQQYNYYPITFGQGTRLEIKR
notes: as for B5
B9: CPA.12.005 Fab (A06 S397-01.H07) (Fab, V domains shown)
VH: QVQLVESGGGVVQPGRSLRVSCAVSGFTFSSYGMHWVRQAPGGGLEWVAVMSYEGSFRHYADSVKGRFTISRDNSKNTLFLQMDSLRAEDTAVYYCARDRPAGYTSGWGILDYWGQGTLVTVSS
VL: EIVMTQSPATLSLSPGERATLSCRASQSVSSYLAWYQQKPGQAPRLLIYDASNRATGIPARFSGSGSGTDFTLTISSLEPEDFAVYYCQQRSNWPLTFGGGTKVDIKR
notes: as for B5
B10: CPA.12.006 Fab (A07 S398-01.D09) (Fab, V domains shown)
VH: EVQLVESGGGVVQPGRSLRLSCAASGFTFSSFAMHWVRQAPGKGPEWLGIILYEGGHVVYADSVRGRLTISRDNSKNTLYLQMDSLRDEDTAVYYCAKGFYHAFDVWGQGTMVTVSS
VL: QAVLTQPASLSASPGASASLTCTLRSGINVGTYRIYWYQQKPGSPPQYLLRYKSDSDKQQGSGVPSRFSGSKDASANAGILLISGLQSEDEADYYCMIWHSSAWVFGGGTQLTVLG
notes: as for B5
B11: CPA.12.009 Fab (A10 S398-02.A04) (Fab, V domains shown)
VH: QMQLVQSGAEVKKPGASVKVSCKASGYTFTTHAFSWVRQAPGLGLEWMGWISTYNGNTKYEQKFQGRVTLTTDSSTNTAYMELRSLRSDDTAVYYCVRDSRAFDVWGQGTMVTVSS
VL: DIQLTQSPSFLSASVGDRVTITCRASQGINSYLAWYQQKPGAAPKLLIYAASTLQSGVPSRFSGSGSGTEFTLTISSLQPEDFATYYCQQLNTYPLIFGQGTRLEIKR
notes: as for B5
B12: CPA.12.004 Fab (A04 S397-01.D06) (Fab, V domains shown)
VH: B2 VH
VL: B2 VL
notes: as for B5
B13: CPA.12.003 Fab (A03 S397-01.A12) (Fab, V domains shown)
VH: B3 VH
VL: B3 VL
notes: as for B5
B14: CPA.12.001 Fab (A01 S397-01.A04) (Fab, V domains shown)
VH: B4 VH
VL: B4 VL
notes: as for B5

The first assay has as its target T1, mouse HIDE1. The experiment in a line: FACS on 293T-moHIDE1 cells, human IgG4. As for the experimental part:
(§1) FACS screening of reformatted IgG4 antibodies: The cell lines described in paragraph [001066] (“FACS screening of PPE”) were mixed with FACS buffer containing the purified anti-HIDE1 IgGs or isotype controls. […] Cells were washed again and fluorescence was detected using an Intellicyt HTFC screening system (Intellicyt). Data were analyzed using FCS Express (DeNovo) and plotted for affinity calculations (KD) in GraphPad Prism (GraphPad Software, Inc.). Note that each anti-HIDE1 antibody was tested over a titration range from 0-80 μg/mL.
(§2) Overview of FACS binding results for human IgG4 antibodies reformatted from Fab screening hits. […] IgGs from the same H-CDR3 family are indicated by the same color, either blue or green. CPA.12.003 & CPA.12.008 have identical heavy chain CDR-3 regions and minor differences in framework regions or other CDRs. The same holds for CPA.12.004 & CPA.12.013. N.B. not binding.
For B1, the binding result was “no binding (tested: titration 0-80 µg/mL)”.

B2: the binding result was “no binding (tested: titration 0-80 µg/mL)”.

On to B3, for which the binding result is “no binding (tested: titration 0-80 µg/mL)”.

In the case of B4, the binding result is reported as “no binding (tested: titration 0-80 µg/mL)”.

The target of another assay is T3, HIDE1_HH-1 (Human ECD + human IgG1 Fc mutated C220S at hinge), without SP (human).
T3 construct: Batch #280 in the Serotec and phage display work; also called HIDE1 hECD-hIg; HIDE1 (H:H) recombinant Fc fusion protein
T3 sequence (chain, as listed by the source C220S C220S limits assumed): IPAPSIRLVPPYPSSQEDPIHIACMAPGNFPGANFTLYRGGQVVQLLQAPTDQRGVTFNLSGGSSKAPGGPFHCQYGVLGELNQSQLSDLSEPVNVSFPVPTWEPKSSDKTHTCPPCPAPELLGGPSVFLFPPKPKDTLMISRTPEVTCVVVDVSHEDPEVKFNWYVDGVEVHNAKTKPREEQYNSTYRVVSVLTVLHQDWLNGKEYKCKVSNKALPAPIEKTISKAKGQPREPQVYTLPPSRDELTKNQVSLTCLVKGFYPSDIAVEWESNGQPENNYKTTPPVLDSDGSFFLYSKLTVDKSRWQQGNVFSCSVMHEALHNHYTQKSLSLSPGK
The experiment in a line: SPR (ProteOn), Fab PPE over captured HIDE1-HH-1, 1:1 fit. The protocol: Preliminary Fab binding kinetics were determined using Fab PPEs produced as described in paragraph [001064] (“Fab PPE production”)[001064]. Studies were conducted using Biacore 3000 and ProteOn XPR 36 instruments at 22° C.
A high density goat anti-human Fc antibody (Invitrogen) was immobilized by standard amine coupling over all lanes of a GLC chip using a ProteOn XPR 36 biosensor (Biorad). This surface was used to capture the recombinant HIDE1-H:H fusion protein (GenScript Lot 393383-21, batch #280) or a control Fc fusion protein (CD155, Sino Biologicals) in the vertical flow-cell direction at a concentration of ˜0.5 μg/mL for 90 seconds.
Consider B5, for which the Kd (usually the equilibrium constant for the complex coming apart) came out at 1.6 nM; the koff (commonly the first-order rate constant of dissociation) was determined as 0.00034 s⁻¹; the kon (as a rule, the rate constant with which the complex forms) is 210000 M⁻¹ s⁻¹.

For B6, the Kd was determined as 37 nM, the off-rate (koff) is 0.0037 s⁻¹ and the kon was determined as 99000 M⁻¹ s⁻¹.

Turning to B7, the Kd is 8 nM, the koff turned out to be 0.00083 s⁻¹ and the kon was determined as 100000 M⁻¹ s⁻¹.

As for B8, the Kd came to 0.64 nM, the koff was found to be 0.00019 s⁻¹ and the on-rate constant (kon) was 290000 M⁻¹ s⁻¹.

With B9, the equilibrium dissociation constant (Kd) turned out to be 2.3 nM, the koff stood at 0.001 s⁻¹ and the association rate constant (kon) was determined as 440000 M⁻¹ s⁻¹.

Consider B10, for which the Kd worked out at 3.9 nM, the koff amounted to 0.00027 s⁻¹ and the kon turned out to be 68000 M⁻¹ s⁻¹.

As to B11, the Kd is 1 nM, the off-rate (koff) is 0.0014 s⁻¹ and the kon was determined as 1.4e+06 M⁻¹ s⁻¹.

Regarding B12, the Kd came to 2.1 nM, the koff turned out to be 0.0033 s⁻¹ and the kon stood at 1.6e+06 M⁻¹ s⁻¹.

As for B13, the Kd is 0.91 nM, the koff was found to be 0.00022 s⁻¹ and the kon stood at 250000 M⁻¹ s⁻¹.

For B14, the dissociation constant (Kd) was determined as 1.2 nM, the off-rate constant (koff) was 0.00081 s⁻¹ and the kon amounted to 670000 M⁻¹ s⁻¹.

The target of another assay is T2, human HIDE1. As to the kind of experiment: FACS titration on 293T-huHIDE1 cells, human IgG4 (preliminary FACS KD). The protocol: as §1, §2
With B1, binding was put at a Kd of 6.4 nM.

On to B2, for which the Kd amounted to 1.4 nM.

In turn, B3 displayed a Kd of 18 nM.

B4 had a Kd of 61 nM.
